Results on 1 molecule are retold here after patent US20240293573A1 (SEOUL NATIONAL UNIVERSITY R AND DB FOUNDATION, published 2024).

This test deals with T1, Claudin3 (Homo sapiens (Human), UniProt O15551 1-220).
T1 construct: also called CLDN3
T1 sequence: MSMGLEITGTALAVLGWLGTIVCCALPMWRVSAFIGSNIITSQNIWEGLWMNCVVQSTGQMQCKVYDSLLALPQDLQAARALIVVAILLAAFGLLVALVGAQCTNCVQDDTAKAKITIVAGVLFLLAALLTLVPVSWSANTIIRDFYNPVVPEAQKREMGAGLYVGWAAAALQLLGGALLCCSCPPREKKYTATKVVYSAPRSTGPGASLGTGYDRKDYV
The test is described as follows: fluorescence of FITC-labeled h4G3cys on CLDN3/TOV-112D cells, one-to-one two-state model.

B1: cysteine-substituted anti-Claudin3 human monoclonal antibody h4G3cys (light chain Q125C) (antibody, human IgG1, kappa, V domains shown)
VH: EVQLLESGGGLVQPGGSLRLSCAASGFTFSSYAMSWVRQAPGKGLEWVSIINPSGASTSHAQRFQGRFTISRDNSKNTLYLQMNSLRAEDTAVYYCARYGRYGSFDIWGQGTLVTVSS
VL: QSVLTQPPSASGTPGQRVTISCSGSTSNIGRNYVSWYQQLPGTAPKLLIYDTSNKHFGVPDRFSGSKSGTSASLAISGLRSEDEADYYCQSYDSSKVVFGGGTKLTVLR
notes: also called modified anti-Claudin3 antibody; anti-Claudin3 antibody variant
As a reminder, the Kd is the concentration at which binding is half-saturated. Take B1: binding was put at a Kd of 5.24 nM.
